Reference: patent US20020012945A1, “METHOD AND REAGENT FOR THE DETECTION OF APOPTOTIC CELLS AND OF A PROTEASE ACTIVATED DURING APOPTOSIS” (priority 1998, published 2002)
* marks the point of attachment. Dnp = O=[N+]([O-])c1ccc(*)c([N+](=O)[O-])c1; Mca = COc1ccc2c(CC(=O)*)cc(=O)oc2c1

Key:
caspase 3 [1] = target: T1, caspase 3 (Homo sapiens, UniProt P42574); test: Selection of the optimal fluorescent substrate; format: biochemical
T1 construct: endogenous in cells; host or cells: cell lysates with and without camptothecin induction (cell model U937/CAM)
T1 sequence (P42574 29-175 limits assumed): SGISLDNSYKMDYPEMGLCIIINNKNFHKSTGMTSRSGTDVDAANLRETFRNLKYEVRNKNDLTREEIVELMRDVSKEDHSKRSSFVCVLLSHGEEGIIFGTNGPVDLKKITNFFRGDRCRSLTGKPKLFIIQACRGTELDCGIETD
T1 sequence (P42574 176-277 limits assumed): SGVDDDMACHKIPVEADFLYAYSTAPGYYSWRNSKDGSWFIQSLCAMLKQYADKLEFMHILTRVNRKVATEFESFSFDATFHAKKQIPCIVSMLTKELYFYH
Experimental: Three fluorescent substrates were tested. They are acetyl-Asp-Glu-Val-Asp-7-amido-4-trifluoromethyl-coumarin (AFC), acetyl-Asp-Glu-Val-Asp-7-amido-4-methyl-coumarin (AMC) and (7-methoxycoumarin-4-yl)acetyl-Asp-Glu-Val-Asp-Ala-Pro-Lys(2,4-dinitrophenyl)OH (Mca). The three substrates were compared with one another using the assessment criteria i) background ii) signal level and iii) signal ratio from ± induction.

caspase 3 [2] = test: Caspase 3 activation in camptothecin-treated U937 cells, antibody capture and Ac-DEVD-AFC cleavage; format: cell-based, human; settings: U937 5×10^5 cells/ml, 4 μg/ml camptothecin, after 2 h
Experimental: In order to induce apoptosis in a cellular system, human cells (U937; human histiolytic lymphoma […]) were treated with camptothecin (Topoisomerase I inhibitor, chemotherapeutic agent). […] In order to detect the protease activated by apoptosis (caspase 3), ca. 10^6 cells were withdrawn from the treated cell culture and lysed in lysis buffer (50 mM NaPO4, 10 mM NaCl, 1 mM […], 0.25% (w/v) Nonidet P40, 0.3 mM EDTA; pH 7.8) on ice. The lysate is then contacted with an antibody directed against caspase 3 which is coupled to a solid phase and binds caspase 3 from the lysate for the specific caspase 3 analysis. After removing the supernatant (contains all unspecific components and enzymes), a substrate (50 μM Ac-DEVD-AFC) is added and its caspase 3 mediated substrate conversion is measured by the formation of the fluorescent coumarin cleavage product. After subtraction of the blank value (self fluorescence of the substrate without lysate addition), the kinetic course of the caspase 3 activity can be shown graphically (FIG. 1).

Compound | signal level (caspase 3 [1]) | signal ratio from ± induction (caspase 3 [1]) | background (self-fluorescence of the substrate without lysate addition) (caspase 3 [1]) | protease activity (caspase 3) (caspase 3 [2])
acetyl-Asp-Glu-Val-Asp-7-amido-4-trifluoromethyl-coumarin [AFC] | very good signal yield | optimal ratio | – | –
(7-methoxycoumarin-4-yl)acetyl-Asp-Glu-Val-Asp-Ala-Pro-Lys(2,4-dinitrophenyl)OH (Mca-DEVDAPK(Dnp)-OH; SMILES COc1ccc2c(CC(=O)N[C@@H](CC(=O)O)C(=O)N[C@@H](CCC(=O)O)C(=O)N[C@H](C(=O)N[C@@H](CC(=O)O)C(=O)N[C@@H](C)C(=O)N3CCC[C@H]3C(=O)N[C@@H](CCCCNc3ccc([N+](=O)[O-])cc3[N+](=O)[O-])C(=O)O)C(C)C)cc(=O)oc2c1) | low signal levels | somewhat better ratio | – | –
acetyl-Asp-Glu-Val-Asp-7-amido-4-methyl-coumarin [AMC] | highest signals | – | relatively high | –
CC[C@@]1(O)C(=O)OCc2c1cc1n(c2=O)Cc2cc3ccccc3nc2-1 [camptothecin] | – | – | – | increase of protease activity
